According to publication PMC5240623:
pKd: −log10 of the molar value.

Legend:
[1] = target: DmMBD2/3 coiled-coil domain (amino acids 309–339), thioredoxin fusion (D. melanogaster); assay: ITC; fusion peptides left uncleaved; 50 mM Hepes pH 7.4, 150 mM NaCl, 298 K; MicroCal Auto-iTC200, 20–24 injections; HsMBD2 (1.8 mM), EmGATAD2A/B (2.74 mM), DmGATAD2A/B (2.5 mM) injected into HsGATAD2A (100 μM), EmMBD2/3 (270 μM), DmMBD2/3 (250 μM); one-site binding model
[2] = test system: EmMBD2/3a coiled-coil domain (amino acids 324–354), thioredoxin fusion; assay: AUC; sedimentation velocity, 40,000 rpm, 293 K, 20 mM Tris pH 8.0, 150 mM NaCl; thioredoxin fusions left uncleaved; each peptide in isolation and a 100 μM mixture
[3] = target: EmMBD2/3a coiled-coil domain (amino acids 324–354), thioredoxin fusion (E. muelleri); assay: ITC; fusion peptides left uncleaved; 50 mM Hepes pH 7.4, 150 mM NaCl, 298 K; MicroCal Auto-iTC200, 20–24 injections; HsMBD2 (1.8 mM), EmGATAD2A/B (2.74 mM), DmGATAD2A/B (2.5 mM) injected into HsGATAD2A (100 μM), EmMBD2/3 (270 μM), DmMBD2/3 (250 μM); one-site binding model
[4] = target: HsGATAD2A coiled-coil domain, uncleaved fusion peptide (human) (UniProt Q86YP4); assay: as above
HsGATAD2A coiled-coil domain, uncleaved fusion peptide (human), sequence (Q86YP4 137-178): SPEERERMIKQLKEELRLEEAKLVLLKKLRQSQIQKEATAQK

[5] = test system: EmMBD2/3 MBD (Ephydatia muelleri); assay: SPR; settings: SPR: 10 mM HEPES pH 7.4, 50 mM NaCl, 3 mM MgCl2, 0.1 mM EDTA, 1 mM DTT, 0.05% polysorbate 20, temperature not stated, NMR conditions not in material
[6] = target: EmGATAD2A/B coiled-coil domain (amino acids 58–100), thioredoxin fusion (E. muelleri); assay: ITC; fusion peptides left uncleaved; 50 mM Hepes pH 7.4, 150 mM NaCl, 298 K; MicroCal Auto-iTC200, 20–24 injections; HsMBD2 (1.8 mM), EmGATAD2A/B (2.74 mM), DmGATAD2A/B (2.5 mM) injected into HsGATAD2A (100 μM), EmMBD2/3 (270 μM), DmMBD2/3 (250 μM); one-site binding model

HsMBD2 coiled-coil domain, uncleaved fusion peptide, sequence (Q9UBB5 360-393): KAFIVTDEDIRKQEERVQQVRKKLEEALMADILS
DmMBD2/3 coiled-coil domain (amino acids 309–339), thioredoxin fusion (D. melanogaster), sequence (main, as listed by the source): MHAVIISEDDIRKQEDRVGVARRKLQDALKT

DmGATAD2A/B coiled-coil domain (amino acids 183–223), thioredoxin fusion (domain or fragment)
pKd [1]: 5.13
dH [1]: -27.6 kcal/mol
stoichiometry N [1]: 1

EmGATAD2A/B coiled-coil domain (amino acids 58–100), thioredoxin fusion
percent of heterodimeric species in a 100 μM mixture [2]: heterodimeric (45.1 kDa, 58.1%)

EmGATAD2A/B coiled-coil domain (amino acids 58–100), thioredoxin fusion (domain or fragment)
pKd [3]: 5.04
dH [3]: -9.8 kcal/mol
stoichiometry N [3]: 0.8

EmMBD2/3a coiled-coil domain (amino acids 324–354), thioredoxin fusion (domain or fragment)
pKd [4]: 6.42
dH [4]: -8.99 kcal/mol
stoichiometry N [4]: 1.3

GAGGCGCTCGGCGGCAG (double strand) [CpG(x3) 17 bp, 3'-biotin]
pKd [5]: 4.19

GAGGCGCTCGGCGGCAG (double strand) [mCpG 17 bp, 3'-biotin]
pKd ([5]; 5-methyl-C at C9 of strand 1 and C8 of strand 2 (central CpG), two other CpGs unmethylated): 6.37

HsMBD2 coiled-coil domain, uncleaved fusion peptide (from UniProt Q9UBB5 360-393) (domain or fragment)
pKd [6]: 5.89
dH [6]: -8.92 kcal/mol
stoichiometry N [6]: 1.1
